KR20220054080A (dated 2022)
Numbering of substitutions follows the chain as printed.

B1: SA3755 (antibody, V domains shown)
VH: QMQLVESGGGVVQPGGSLRLSCAASGFTFDDHTMHWVRQAPGKGLEWVSLISWDGGSTYYADSVKGRFTISRDNSKNSLYLQMNSLRAEDTAVYYCTRDASRRPGDGGYDFDVWGQGTQVTVSS
VL: QAVVTQEPSLTVSPGGTVTLTCGSSTGTVTRGHWPYWFQQKPGQAPRTLIYDTDNKHSWTPARFSGSLLGGKAALTLSGAQPEDEADYYCLLSYSDSRVFGTGTKVTVL
B2: SA3838 (antibody, V domains shown)
VH: QVQLVESGAEVKKPGASVRVSCKISGYIFTELSIHWVRQAPGKGLEWMGGFDPEEGKTIYAQKFQGRVTMTEDTSTDTAYMELSSLRSEDTAVYYCAKIGHLGDFWYWGQGTLITVSS
VL: QSALTQPASVSGSPGQSITISCTGTTSDIGSYDYVSWYQQHPGKAPKLIIYGVTRRPSGVSNRFSGSKSGNTASLTISRLLTEDEAEYYCATYTSSATYVFGTGTKVTVL
B3: SA3779 (antibody, V domains shown)
VH: QVQLVESGGGVVQPGRSLRLSCAASGFTFSSYAMHWVRQAPGKGLEWVAVISYDGSNKYYADSAKGRFTISRDNSKNTLYLQMNSLRAEDTAVYYCARRGHYYDSSGYLYWGHGTLITVSS
VL: DIQMTQSPSSLSASVGDRVTITCRASQRIATYLHWYQQKPGRAPKLLIYAASSLQTGVPSRFSGSGSGTDFTLTINSLQPEDFATYYCQQSYAIPYTFGQGTKLEIK
B4: SA3827 (antibody, V domains shown)
VH: B3 VH with G10T, V11L, A64V, Y108F, H113Q, I117V
VL: DIQMTQSPSSLSASVGDRVTITCRASQSISTYLSWYQQKPGKAPKLLIYAASNLQSGVPSRFSASGSGTDFTLTISSLQPEDFATYYCQQSYNTPRTFGQGTKVEIK
B5: SA4118 (antibody, V domains shown)
VH: B2 VH
VL: B2 VL with R79G, L81Q, T82A, E87N, A91S, T92S, Y93C, S95R, A97S
B6: SA4079 (antibody, V domains shown)
VH: B1 VH
VL: B1 VL with V18A, N55T
B7: SA4114 (antibody, V domains shown)
VH: B3 VH with G10T, V11L, A64V, Y108F, H113Q, I117V
VL: DIQMTQSPSSLSASVGDRVTITCRAGQSIDNYLNWYQQKPGKAPKLLIYAASTLHSGVPSRFSGSGSGTDFTLTISSLQPDDFATYYCQQSYSIPRTFGQGTKLEIK
B8: SA4086 (antibody, V domains shown)
VH: B3 VH
VL: B4 VL

These binders were tested against T1, SARS-CoV-2 RBD-mFc (SARS-CoV-2, UniProt P0DTC2 319-541) (assay: not given).
For B1, the IC50 was 23.1 nM.

What follows are binders tested against T2, SARS-CoV-2 스파이크 S1-mFc (SARS-CoV-2, UniProt P0DTC2 16-685) (assay: not given).
B1 showed an IC50 of 8.27 nM.

Target: T1, SARS-CoV-2 RBD-mFc
Test: not given
Remark: another data set of the same source
B1 was tested, and the IC50 was 2.26 nM.

These binders were tested against T3, SARS-CoV 스파이크 [change] (#40150-V08B1, Sino Biological) (SARS-CoV, UniProt P59594 14-667) (assay: ELISA, coated S1-His).
B2: no binding (tested: 50 nM). B1: no binding (tested: 50 nM). B3: no binding (tested: 50 nM). B4: no binding (tested: 50 nM).

What follows are binders tested against T4, SARS-CoV-2 RBD-hFc (SARS-CoV-2, UniProt P0DTC2 319-541) (assay: cell-based or functional assay).
With B2 the “IC50, 세포내 유입(internalization) 억제, HEK293E/ACE2-GFP” value (“IC50 … HEK293E/ACE2-GFP” for short) was 36.1 nM. In the case of B1, the “IC50 … HEK293E/ACE2-GFP” value is reported as 40 nM. B3 was tested, and the “IC50 … HEK293E/ACE2-GFP” value was 18.9 nM. For B4, the “IC50 … HEK293E/ACE2-GFP” value was 12.9 nM.

The binders below were run against T5, SARS-CoV-2 spike protein on live SARS-CoV-2 virus (SARS-CoV-2, UniProt P0DTC2 14-1273) (assay: cell-based or functional assay).
In the case of B2, the “IC50, live SARS-CoV-2 미세중화분석, Vero 세포” value is reported as 9.4 nM. For B1, the “IC50, live SARS-CoV-2 미세중화분석, Vero 세포” value was 8.74 nM. B3 was tested, and the “IC50, live SARS-CoV-2 미세중화분석, Vero 세포” value was 56.8 nM. B4 was tested, and the “IC50, live SARS-CoV-2 미세중화분석, Vero 세포” value was 8.92 nM.

Target: T4, SARS-CoV-2 RBD-hFc
Test: cell-based or functional assay
Remark: another data set of the same source
For B2, the “IC50 … HEK293E/ACE2-GFP” value was 42.8 nM. B5 was tested, and the “IC50 … HEK293E/ACE2-GFP” value was 31.4 nM. With B1 the “IC50 … HEK293E/ACE2-GFP” value was 35.8 nM. B6 was tested, and the “IC50 … HEK293E/ACE2-GFP” value was 40 nM. With B3 the “IC50 … HEK293E/ACE2-GFP” value was 27.3 nM. With B4 the “IC50 … HEK293E/ACE2-GFP” value was 18.3 nM. For B7, the “IC50 … HEK293E/ACE2-GFP” value was 24.1 nM. With B8 the “IC50 … HEK293E/ACE2-GFP” value was 27.2 nM.

Target: T5, SARS-CoV-2 spike protein on live …
Test: cell-based or functional assay
Remark: another data set of the same source
B2 was tested, and the “IC50, live SARS-CoV-2 미세중화분석, Vero 세포, 72시간” value (from here on “IC50 … 72시간”) was 13.5 nM. With B5 the “IC50 … 72시간” value was 8.29 nM. B1 was tested, and the “IC50 … 72시간” value was 5.12 nM. In the case of B6, the “IC50 … 72시간” value is reported as 2.74 nM. B3 was tested, and the “IC50 … 72시간” value was 45.6 nM. For B4, the “IC50 … 72시간” value was 7.94 nM. With B7 the “IC50 … 72시간” value was 12.8 nM. In the case of B8, the “IC50 … 72시간” value is reported as 12.4 nM.

What follows are binders tested against SARS-CoV RBD-His (#40150-V08B2, Sino Biological) (SARS-CoV, UniProt P59594 306-527) (assay: ELISA, coated His-tagged antigen).
B2: no binding. B5: no binding. B1: no binding. B6: no binding. B3: no binding. B4: no binding. B7: no binding. B8: no binding.

Each binder was assayed against T1, SARS-CoV-2 RBD-mFc (assay: Octet QKe BLI, 1:1 global fit).
For B1, the Kd was 1.06 nM, the koff was 0.000424 s⁻¹ and the kon was 399000 M⁻¹ s⁻¹. B3 showed a Kd of 1.05 nM, a koff of 0.000223 s⁻¹ and a kon of 213000 M⁻¹ s⁻¹. B4 gave a Kd of 0.452 nM, a koff of 0.000173 s⁻¹ and a kon of 383000 M⁻¹ s⁻¹.

Target: T1, SARS-CoV-2 RBD-mFc
Test: Octet QKe BLI, 1:1 global fit
Remark: another data set of the same source
For B5, the Kd was 0.0296 nM, the koff was 2.05e-05 s⁻¹ and the kon was 695000 M⁻¹ s⁻¹. With B6 the Kd was 0.154 nM, the koff was 5.73e-05 s⁻¹ and the kon was 373000 M⁻¹ s⁻¹. B7 gave a Kd of 0.0899 nM, a koff of 3.89e-05 s⁻¹ and a kon of 433000 M⁻¹ s⁻¹. B8 gave a Kd of 0.106 nM, a koff of 4.99e-05 s⁻¹ and a kon of 471000 M⁻¹ s⁻¹.

These binders were tested against T3, SARS-CoV 스파이크 [change] (#40150-V08B1, …) (assay: ELISA, coated S1-His, as Example 5.2).
B5: no binding. B6: no binding. B7: no binding. B8: no binding.

What follows are binders tested against T2, SARS-CoV-2 스파이크 S1-mFc (assay: competition ELISA: S1-mFc on coated ACE2-His).
Binder B2 has an IC50 of 1.2 nM. Binder B1 has an IC50 of 4.06 nM. Work on B3 yielded an IC50 of 4.03 nM. B4 gave an IC50 of 0.61 nM.

Target: T2, SARS-CoV-2 스파이크 S1-mFc
Test: competition ELISA: S1-mFc on coated ACE2-His
Remark: another data set of the same source
With B2 the IC50 was 2.25 nM. B5 was tested, and the IC50 was 2.28 nM. B1 was tested, and the IC50 was 4.67 nM. For B6, the IC50 was 2.71 nM. For B3, the IC50 was 3.59 nM. B4 was tested, and the IC50 was 0.9 nM. For B7, the IC50 was 1.19 nM. For B8, the IC50 was 1.28 nM.

What follows are binders tested against T1, SARS-CoV-2 RBD-mFc (assay: competition ELISA: RBD-mFc on coated ACE2-His).
Binder B2 has an IC50 of 2.2 nM. With B1 the IC50 was 7.74 nM. B3 showed an IC50 of 11.2 nM. In the case of B4, the IC50 is reported as 0.914 nM.

Target: T1, SARS-CoV-2 RBD-mFc
Test: competition ELISA: RBD-mFc on coated ACE2-His
Remark: another data set of the same source
B2 gave an IC50 of 1.62 nM. Binder B5 has an IC50 of 0.709 nM. B1 gave an IC50 of 5.71 nM. With B6 the IC50 was 3.62 nM. B3 gave an IC50 of 7.96 nM. Binder B4 has an IC50 of 0.321 nM. Binder B7 has an IC50 of 0.364 nM. B8 showed an IC50 of 1.24 nM.

Each binder was assayed against T1, SARS-CoV-2 RBD-mFc (assay: flow cytometry competition: RBD-mFc on HEK293E/ACE2 cells).
Work on B2 yielded an IC50 of 3.38 nM. For B1, the IC50 was 3.8 nM. In the case of B3, the IC50 is reported as 2.84 nM. Binder B4 has an IC50 of 2.74 nM.

Target: T1, SARS-CoV-2 RBD-mFc
Test: as above
Remark: another data set of the same source
In the case of B2, the IC50 is reported as 2.99 nM. For B5, the IC50 was 2.71 nM. B1 was tested, and the IC50 was 3.09 nM. B6 was tested, and the IC50 was 2.35 nM. Work on B3 yielded an IC50 of 2.65 nM. B4 gave an IC50 of 2.71 nM. In the case of B7, the IC50 is reported as 2.39 nM. B8 was tested, and the IC50 was 2.47 nM.
